According to patent US20240240209A1, “SYNTHESIS OF ENANTIOPURE CIS-A-IRONE FROM A RENEWABLE CARBON SOURCE” (Agency for Science, Technology and Research, priority 2021, published 2024):

B1: V12K (protein)
chain: MPQEARTPQQQKTADEVGDWYDKFGEVYHLTLGESVHCGLWFPPDAPVPQDMELVTMSSQAQDRFTDYLIETLDPKAGQHLLDIGCGTGRPALKAARQRGIAVTGVAVSKEQIAAANRLAAGHGLTERLTFEVADAMRLPYEDESFDCAWAIESLDHMDRAKALGEAWRVLKPGGDLLVAEEVVTEELTEPETALFETLFALNVPPRLGEFFDIVSGAGFHTLSLKDLSADLAMTMNVFALGVYSRRAEFTERFGAEFVDGLLAGLGSAQETVIRKTRFFMATLRKPAV
modifications: Modified from pMT1
B2: T126S (protein)
chain: MPQEARTPQQQVTADEVGDWYDKFGEVYHLTLGESVHCGLWFPPDAPVPQDMELVTMSSQAQDRFTDYLIETLDPKAGQHLLDIGCGTGRPALKAARQRGIAVTGVAVSKEQIAAANRLAAGHGLSERLTFEVADAMRLPYEDESFDCAWAIESLDHMDRAKALGEAWRVLKPGGDLLVAEEVVTEELTEPETALFETLFALNVPPRLGEFFDIVSGAGFHTLSLKDLSADLAMTMNVFALGVYSRRAEFTERFGAEFVDGLLAGLGSAQETVIRKTRFFMATLRKPAV
modifications: Modified from pMT1
B3: H123S (protein)
chain: MPQEARTPQQQVTADEVGDWYDKFGEVYHLTLGESVHCGLWFPPDAPVPQDMELVTMSSQAQDRFTDYLIETLDPKAGQHLLDIGCGTGRPALKAARQRGIAVTGVAVSKEQIAAANRLAAGSGLTERLTFEVADAMRLPYEDESFDCAWAIESLDHMDRAKALGEAWRVLKPGGDLLVAEEVVTEELTEPETALFETLFALNVPPRLGEFFDIVSGAGFHTLSLKDLSADLAMTMNVFALGVYSRRAEFTERFGAEFVDGLLAGLGSAQETVIRKTRFFMATLRKPAV
modifications: Modified from pMT1
B4: V12A (protein)
chain: MPQEARTPQQQATADEVGDWYDKFGEVYHLTLGESVHCGLWFPPDAPVPQDMELVTMSSQAQDRFTDYLIETLDPKAGQHLLDIGCGTGRPALKAARQRGIAVTGVAVSKEQIAAANRLAAGHGLTERLTFEVADAMRLPYEDESFDCAWAIESLDHMDRAKALGEAWRVLKPGGDLLVAEEVVTEELTEPETALFETLFALNVPPRLGEFFDIVSGAGFHTLSLKDLSADLAMTMNVFALGVYSRRAEFTERFGAEFVDGLLAGLGSAQETVIRKTRFFMATLRKPAV
modifications: Modified from pMT1
B5: V12G (protein)
chain: MPQEARTPQQQGTADEVGDWYDKFGEVYHLTLGESVHCGLWFPPDAPVPQDMELVTMSSQAQDRFTDYLIETLDPKAGQHLLDIGCGTGRPALKAARQRGIAVTGVAVSKEQIAAANRLAAGHGLTERLTFEVADAMRLPYEDESFDCAWAIESLDHMDRAKALGEAWRVLKPGGDLLVAEEVVTEELTEPETALFETLFALNVPPRLGEFFDIVSGAGFHTLSLKDLSADLAMTMNVFALGVYSRRAEFTERFGAEFVDGLLAGLGSAQETVIRKTRFFMATLRKPAV
modifications: Modified from pMT1
B6: E127G (protein)
chain: MPQEARTPQQQVTADEVGDWYDKFGEVYHLTLGESVHCGLWFPPDAPVPQDMELVTMSSQAQDRFTDYLIETLDPKAGQHLLDIGCGTGRPALKAARQRGIAVTGVAVSKEQIAAANRLAAGHGLTGRLTFEVADAMRLPYEDESFDCAWAIESLDHMDRAKALGEAWRVLKPGGDLLVAEEVVTEELTEPETALFETLFALNVPPRLGEFFDIVSGAGFHTLSLKDLSADLAMTMNVFALGVYSRRAEFTERFGAEFVDGLLAGLGSAQETVIRKTRFFMATLRKPAV
modifications: Modified from pMT1
B7: P191Y (protein)
chain: MPQEARTPQQQVTADEVGDWYDKFGEVYHLTLGESVHCGLWFPPDAPVPQDMELVTMSSQAQDRFTDYLIETLDPKAGQHLLDIGCGTGRPALKAARQRGIAVTGVAVSKEQIAAANRLAAGHGLTERLTFEVADAMRLPYEDESFDCAWAIESLDHMDRAKALGEAWRVLKPGGDLLVAEEVVTEELTEYETALFETLFALNVPPRLGEFFDIVSGAGFHTLSLKDLSADLAMTMNVFALGVYSRRAEFTERFGAEFVDGLLAGLGSAQETVIRKTRFFMATLRKPAV
modifications: Modified from pMT1
B8: T13L (protein)
chain: MPQEARTPQQQVLADEVGDWYDKFGEVYHLTLGESVHCGLWFPPDAPVPQDMELVTMSSQAQDRFTDYLIETLDPKAGQHLLDIGCGTGRPALKAARQRGIAVTGVAVSKEQIAAANRLAAGHGLTERLTFEVADAMRLPYEDESFDCAWAIESLDHMDRAKALGEAWRVLKPGGDLLVAEEVVTEELTEPETALFETLFALNVPPRLGEFFDIVSGAGFHTLSLKDLSADLAMTMNVFALGVYSRRAEFTERFGAEFVDGLLAGLGSAQETVIRKTRFFMATLRKPAV
modifications: Modified from pMT1
B9: P191K (protein)
chain: MPQEARTPQQQVTADEVGDWYDKFGEVYHLTLGESVHCGLWFPPDAPVPQDMELVTMSSQAQDRFTDYLIETLDPKAGQHLLDIGCGTGRPALKAARQRGIAVTGVAVSKEQIAAANRLAAGHGLTERLTFEVADAMRLPYEDESFDCAWAIESLDHMDRAKALGEAWRVLKPGGDLLVAEEVVTEELTEKETALFETLFALNVPPRLGEFFDIVSGAGFHTLSLKDLSADLAMTMNVFALGVYSRRAEFTERFGAEFVDGLLAGLGSAQETVIRKTRFFMATLRKPAV
modifications: Modified from pMT1
B10: P191L (protein)
chain: MPQEARTPQQQVTADEVGDWYDKFGEVYHLTLGESVHCGLWFPPDAPVPQDMELVTMSSQAQDRFTDYLIETLDPKAGQHLLDIGCGTGRPALKAARQRGIAVTGVAVSKEQIAAANRLAAGHGLTERLTFEVADAMRLPYEDESFDCAWAIESLDHMDRAKALGEAWRVLKPGGDLLVAEEVVTEELTELETALFETLFALNVPPRLGEFFDIVSGAGFHTLSLKDLSADLAMTMNVFALGVYSRRAEFTERFGAEFVDGLLAGLGSAQETVIRKTRFFMATLRKPAV
modifications: Modified from pMT1
B11: P191I (protein)
chain: MPQEARTPQQQVTADEVGDWYDKFGEVYHLTLGESVHCGLWFPPDAPVPQDMELVTMSSQAQDRFTDYLIETLDPKAGQHLLDIGCGTGRPALKAARQRGIAVTGVAVSKEQIAAANRLAAGHGLTERLTFEVADAMRLPYEDESFDCAWAIESLDHMDRAKALGEAWRVLKPGGDLLVAEEVVTEELTEIETALFETLFALNVPPRLGEFFDIVSGAGFHTLSLKDLSADLAMTMNVFALGVYSRRAEFTERFGAEFVDGLLAGLGSAQETVIRKTRFFMATLRKPAV
modifications: Modified from pMT1
B12: T126E (protein)
chain: MPQEARTPQQQVTADEVGDWYDKFGEVYHLTLGESVHCGLWFPPDAPVPQDMELVTMSSQAQDRFTDYLIETLDPKAGQHLLDIGCGTGRPALKAARQRGIAVTGVAVSKEQIAAANRLAAGHGLEERLTFEVADAMRLPYEDESFDCAWAIESLDHMDRAKALGEAWRVLKPGGDLLVAEEVVTEELTEPETALFETLFALNVPPRLGEFFDIVSGAGFHTLSLKDLSADLAMTMNVFALGVYSRRAEFTERFGAEFVDGLLAGLGSAQETVIRKTRFFMATLRKPAV
modifications: Modified from pMT1

Assay: In-vivo cis-α-irone production screening of pMT7 and pMT12 mutants
Format: cell-based, Escherichia coli
Settings: mutations made to pMT12; normalized to pMT12 (=1)
Source text: Q60 was identified as another possible mutation site.
FIGS. 24a and 24b show the in-vivo and in-vitro cis-α-irone production of other possible single mutations to pMT12. The in-vitro results in FIG. 24b validate the mutations and in-vivo results in FIG. 24a. The mutations in FIG. 24 include Q11H (SEQ ID No. 23), V12R (SEQ ID No. 24), A95C (SEQ ID No. 25), H123Q (SEQ ID No. 26), E127T (SEQ ID No. 27), M137T (SEQ ID No. 28), D176V (SEQ ID No. 29), D176Y (SEQ ID No. 30). P191S (SEQ ID No. 31), P191V (SEQ ID No. 32), F212L (SEQ ID No. 33), S268H (SEQ ID No. 34), AND T272A (SEQ ID No. 35). The screening results in FIGS. 24 and 25 are semi-quantitative to identify beneficial mutants that give greater than one-fold change of irone production as compared to pMT12.
FIGS. 25a to 25c (and Table 4) show the in-vivo testing results of other possible mutations that may be made to pMT12 to improve its in-vivo production of cis-α-irone. FIGS. 25a to 25c each include two dotted lines to account for a 10% error bar to show the normalized fold change of 0.9 and 1.1.
The four plasmids were transformed into E. coli BL21 (DE3), ΔaroA, ΔaroB, ΔaroC, ΔserC or E. coli BL21 (DE3), ΔaroA, ΔaroB, ΔaroC, ΔserC, ΔmetJ strains and plated on Agar plate containing LB media (10 g, tryptone. 5 g, yeast extract. 10 g, NaCl) supplemented with appropriate antibiotics (100 mg/L ampicillin, 34 mg/L chloramphenicol, 50 mg/L kanamycin, and 100 mg/L spectinomycin). One colony was picked and inoculate into LB media with antibiotics. 1% of overnight culture was inoculated into 1 ml fresh auto-inducing chemically defined media. The chemical media contains carbon source solution: 0.5 g/L glucose, 10 g/L glycerol; inducer: 30 mM lactose and base media: 2 g/L ammonium sulfate, 4.2 g/L KH2PO4, 11.24 g/L K2HPO4, 1.7 g/L citric acid, 0.5 g/L MgSO4, and 10 mL/L trace element solution. The trace element solution (100×) contained 0.25 g/L CoCl2·6H2O, 1.5 g/L MnSO4·4H2O, 0.15 g/L CuSO4·2H2O, 0.3 g/L H3BO3, 0.25 g/L Na2MoO4·2H2O, 0.8 g/L Zn(CH3COO)2, 5 g/L Fe(III) citrate, and 0.84 g/L ethylenediaminetetra-acetic acid (EDTA) at pH 8.0. The culture was grown at 28° C. for 3 days and the products were extracted with 1 ml hexane for GCMS analysis. An example of a fed-batch process for α-ionone Is briefly described, overnight culture was inoculated into 2 L chemical media comprising the base media and 5 g/L glucose, at 37° C. and 30% DO. pH was controlled at 7 with base solution (14% ammonia and 0.5 M NaOH). Feed media (500 g/L glucose and 5 g/L MgSO4) was added into bioreactor once OD600 reached 5, at a rate of 7.15-25.75 g/h glucose for about 4-5 h until OD600 reached ˜30-40. Subsequently, 0.1 mM IPTG was added to induce the production, and feeding rate was kept at a constant rate of 10 g/h glucose, and the temperature was reduced to 30° C. DO was adjusted to 2% or 10%. Feeding was stopped at 113 h when 2 L feeding media was finished, but the culture was further incubated for 24 h. To capture the evaporated products, the exhaust was connected to 25 ml sunflower oil.
For B1, the “Fold change in in-vivo cis-α-irone production” value (“Fold change” for short) was 1.00.
With B2 the “Fold change” value was 0.96.
In the case of B3, the “Fold change” value is reported as 0.84.
In the case of B4, the “Fold change” value is reported as 0.97.
In the case of B5, the “Fold change” value is reported as 0.97.
With B6 the “Fold change” value was 0.98.
In the case of B7, the “Fold change” value is reported as 1.29.
In the case of B8, the “Fold change” value is reported as 0.97.
In the case of B9, the “Fold change” value is reported as 1.26.
With B10 the “Fold change” value was 1.12.
For B11, the “Fold change” value was 1.31.
With B12 the “Fold change” value was 0.88.
